From article PMC11736430, “Embedding a ribonuclease in the spore crust couples gene expression to spore development in Bacillus subtilis” (Nucleic Acids Research, 2025) come the findings set out here.

The series deals with the molecule itself. Put plainly: SEC; KapD alone on the gel-filtration column; fractions 8-16 blotted with anti-KapD; size against a molecular weight marker.

B1: KapD-6xHis (enzyme, B. subtilis, UniProt O05231 1-205, looked up)
chain: MTTNSLLIIDFEFTMPDGKYSPQNFFPEIIEAGIVKSIDDEVVETFSSYVRPKKFPKLTKRCKSFLKITQKQVDEGMRFEDFIRKLNELDPEKNSTIITWGNMDMKVLKQNCMFNHIPFPFKGEMRDLSLEYKNFFGDRTLTGLWKAAEEYGDSGTGTHHKALDDALTAYKLFKLVEQDKQYLEKPKPPTIGERIDLTELLKRAT
notes: KapD, 3'-exoribonuclease of the DEDDh family, Bacillus subtilis; kapD gene amplified with oligos CC073/074 and cloned in pET28a (EcoRI/SalI); also called KapD-His; His-tagged KapD; source: E. coli BL21 CodonPlus RIL (strain CCE095); in lysate (cells lysed together with the CotY strain), and purified (His-Trap, gel filtration) for KapD alone; not shown: His6, C-terminal, kept
Turning to B1, the “stoichiometry N” value is 2.
